Test results published in patent US20110020786A1, “PEPTIDE DENDRIMERS: AFFINITY REAGENTS FOR BINDING NOROVIRUSES” (BAYLOR COLLEGE OF MEDICINE, priority 2007, published 2011).
Ends that are not written are not given here.

Molecular target: NoVLPs (Norovirus-like particles) (so in the source)
Experiment: SPR (BIAcore), NoVLPs immobilized, dendrimer injected at 8-240 µM, steady-state fit of the equilibrium average response

RHFQTHTVPLSL (also: octovalent MAP dendrimer, eight copies on branching lysine core) […8 (the octovalent dendrimer of SEQ ID NO: 1)] showed a Kd of 117 µM.
